Where no end group is shown, it is not given here.
Molecular target: T1, polyionic peptide AlaCysLysLysLysLysLysLysLysLys (ACK8) (also: also used as mixed disulfide with glutathione on Cys (ACK8-SG))
T1 construct: Synthetic peptide (Fmoc); also called ACK8-SG (mixed disulfide with glutathione)
T1 peptide: ACKKKKKKKK
Assay: 20 µM ACE8 with the mixed disulfide ACK8-SG, 0 to 1 M NaCl, cation exchange chromatography

ACEEEEEEEE (Synthetic peptide (Fmoc)) [polyionic peptide AlaCysGluGluGluGluGluGluGluGlu (ACE8)]: binds.

Reference: patent US6437095 (Hoffmann-La Roche, dated 2002)
